From paper PMC10344914, “Discovery and mechanism-guided engineering of BHET hydrolases for improved PET recycling and upcycling” (Nature Communications, 2023)

How the values were obtained:
purified protein [1] = substrate: O=C(OCCO)c1ccc(C(=O)OCCO)cc1; test: purified protein; assay type: biochemical, Bacillus subtilis; conditions: 50 mM potassium phosphate (Na2HPO4-NaH2PO4), pH 7.5, 30 °C, BHET 0.8-15 mM
purified protein [2] = substrate: O=C(OCCO)c1ccc(C(=O)OCCO)cc1; test: purified protein; assay type: biochemical, Chryseobacterium sp. PET-29; conditions: 50 mM potassium phosphate (Na2HPO4-NaH2PO4), pH 7.5, 30 °C, BHET 0.8-15 mM

Row | Protein | Km (purified protein [1]) | kcat (purified protein [1]) | kcat/Km (purified protein [1]) | Km (purified protein [2]) | kcat (purified protein [2]) | kcat/Km (purified protein [2])
1 | BsEst (Bacillus subtilis subsp. subtilis str. 168) (protein, catalytic triad S189-E310-H399; L410-K418 barrier) MTHQIVTTQYGKVKGTTENGVHKWKGIPYAKPPVGQWRFKAPEPPEVWEDVLDATAYGSICPQPSDLLSLSYTELPRQSEDCLYVNVFAPDTPSKNLPVMVWIHGGAFYLGAGSEPLYDGSKLAAQGEVIVVTLNYRLGPFGFLHLSSFNEAYSDNLGLLDQAAALKWVRENISAFGGDPDNVTVFGESAGGMSIAALLAMPAAKGLFQKAIMESGASRTMTKEQAASTSAAFLQVLGINEGQLDKLHTVSAEDLLKAADQLRIAEKENIFQLFFQPALDPKTLPEEPEKAIAEGAASGIPLLIGTTRDEGYLFFTPDSDVHSQETLDAALEYLLGKPLAEKVADLYPRSLESQIHMMTDLLFWRPAVAYASAQSHYAPVWMYRFDWHPKKPPYNKAFHALELPFVFGNLDGLERMAKAEITDEVKQLSHTIQSAWITFAKTGNPSTEAVNWPAYHEETRETLILDSEITIENDPESEKRQKLFPSKGE | 100 ± 20 µM | 37.7 ± 1.98 s⁻¹ | 382000 ± 84500 M⁻¹ s⁻¹ |  |  | 
2 | ChryBHETase (Chryseobacterium sp. PET-29; DEL66-76/INS65GG) (protein, catalytic triad S194-E310-H379; V66-K76 barrier) MTTQQHKKIHTFHTSFGTIPALKGNGVIRAKSIRYARSQRFKKPEPLPYPEHDEIPDKTPVCPQNGGTDVEQFEPDESPQFLTITRPEHFNENEKLPVIVWIHGGSYEIGCGDLPTSDPSVWVKEQHIIVVSVSYRLGLFGFLGGSEERPANLGLYDMIAALQWIKQYIRDFGGDPENITLFGQSSGGDAIAHLMISEETENLFRHVIIHSAPLGFRINRQKMSHEFFLKTDILKDEPDALKMVAGYRTFLPSFRKYGLKTSMPFCTQYGHPPLCQEEETMPNWKQNAKKYDVLIGSNQDETAFYVKTSQTGIYTYLPQRILNKIVRKTTASIYEKPAKAFAENLAAGGGNVYQFVIRSTLKSNNIGASHCVDLPLLFENKEAWQSAELLKDVPWEYIQENGKKLRALWAEFARSGSISEDSERPEILKLKKVKN |  |  |  | 120 ± 30 µM | 12.9 ± 1.24 s⁻¹ | 109000 ± 12900 M⁻¹ s⁻¹
3 | BsEst (Bacillus subtilis subsp. subtilis str. 168; DEL410-418/INS409GG) (protein, catalytic triad S189-E310-H399; L410-K418 barrier) MTHQIVTTQYGKVKGTTENGVHKWKGIPYAKPPVGQWRFKAPEPPEVWEDVLDATAYGSICPQPSDLLSLSYTELPRQSEDCLYVNVFAPDTPSKNLPVMVWIHGGAFYLGAGSEPLYDGSKLAAQGEVIVVTLNYRLGPFGFLHLSSFNEAYSDNLGLLDQAAALKWVRENISAFGGDPDNVTVFGESAGGMSIAALLAMPAAKGLFQKAIMESGASRTMTKEQAASTSAAFLQVLGINEGQLDKLHTVSAEDLLKAADQLRIAEKENIFQLFFQPALDPKTLPEEPEKAIAEGAASGIPLLIGTTRDEGYLFFTPDSDVHSQETLDAALEYLLGKPLAEKVADLYPRSLESQIHMMTDLLFWRPAVAYASAQSHYAPVWMYRFDWHPKKPPYNKAFHALELPFVFGNGGAEITDEVKQLSHTIQSAWITFAKTGNPSTEAVNWPAYHEETRETLILDSEITIENDPESEKRQKLFPSKGE | 80 ± 30 µM | 102 ± 5.18 s⁻¹ | 1.35e+06 ± 334000 M⁻¹ s⁻¹ |  |  | 
4 | ChryBHETase (Chryseobacterium sp. PET-29) (protein, catalytic triad S194-E310-H379; V66-K76 barrier) MTTQQHKKIHTFHTSFGTIPALKGNGVIRAKSIRYARSQRFKKPEPLPYPEHDEIPDKTPVCPQNVSPLLDRLIQKTDVEQFEPDESPQFLTITRPEHFNENEKLPVIVWIHGGSYEIGCGDLPTSDPSVWVKEQHIIVVSVSYRLGLFGFLGGSEERPANLGLYDMIAALQWIKQYIRDFGGDPENITLFGQSSGGDAIAHLMISEETENLFRHVIIHSAPLGFRINRQKMSHEFFLKTDILKDEPDALKMVAGYRTFLPSFRKYGLKTSMPFCTQYGHPPLCQEEETMPNWKQNAKKYDVLIGSNQDETAFYVKTSQTGIYTYLPQRILNKIVRKTTASIYEKPAKAFAENLAAGGGNVYQFVIRSTLKSNNIGASHCVDLPLLFENKEAWQSAELLKDVPWEYIQENGKKLRALWAEFARSGSISEDSERPEILKLKKVKN |  |  |  | 90 ± 20 µM | 6.85 ± 0.53 s⁻¹ | 77400 ± 11000 M⁻¹ s⁻¹
